Laboratory results from US20240109974A1 (SHANDONG SIMCERE BIOPHARMACEUTICAL, published 2024).
Numbering of substitutions follows the chain as printed.

T1: human TNFR2 on the surface of CHO-TNFR2 cells (human, UniProt P20333 23-461)
T1 construct: whole, on cells
T1 sequence (looked up): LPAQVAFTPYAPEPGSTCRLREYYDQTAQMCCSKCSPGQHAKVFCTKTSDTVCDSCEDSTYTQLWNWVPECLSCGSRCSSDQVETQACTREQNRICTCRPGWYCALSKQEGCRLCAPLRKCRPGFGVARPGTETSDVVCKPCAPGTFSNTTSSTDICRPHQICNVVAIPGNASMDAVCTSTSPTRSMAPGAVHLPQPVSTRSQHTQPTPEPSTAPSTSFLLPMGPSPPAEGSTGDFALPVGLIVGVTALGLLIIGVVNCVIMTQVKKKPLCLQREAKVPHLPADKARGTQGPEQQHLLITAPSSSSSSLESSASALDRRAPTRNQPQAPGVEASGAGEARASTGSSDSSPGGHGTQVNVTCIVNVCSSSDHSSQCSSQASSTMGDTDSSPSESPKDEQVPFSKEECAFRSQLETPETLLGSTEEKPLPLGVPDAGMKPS

T2: Human TNFR2-His (Sino 10417-H08H) (human, UniProt P20333 23-257)
T2 construct: Bought protein; also called recombinant human TNFR2 protein; not shown: His tag
T2 sequence (looked up): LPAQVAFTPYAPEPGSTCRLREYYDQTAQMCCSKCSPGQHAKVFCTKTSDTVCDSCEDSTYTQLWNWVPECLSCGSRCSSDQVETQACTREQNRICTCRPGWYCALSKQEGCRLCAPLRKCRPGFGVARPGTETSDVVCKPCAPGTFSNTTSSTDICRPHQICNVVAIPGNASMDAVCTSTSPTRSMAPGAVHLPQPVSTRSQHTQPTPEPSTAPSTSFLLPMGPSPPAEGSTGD

T3: Cynomolgus TNFR2-His (Sino 90102-C08H) (cynomolgus monkey, UniProt A0A2K5VET2 132-366)
T3 construct: Bought protein; also called cynomolgus monkey TNFR2; recombinant cynomolgus monkey TNFR2 protein; not shown: His tag
T3 sequence: T2 sequence (looked up) with S16G, S36P, P117Q, N164H, E210A, S216G, M223V

B1: 219-WT (antibody, V domains shown)
VH: EVQLQESGAELVRPGASVKLSCKASGYSFTNYWMNWVKQRPGQGLEWIGMIHPSDTETRLNQNFKDKATLTVDKSSSTSYMQLSSPTSEDSAVYYCARGEGLGAARSVSMDYWGQGTTVTVSS
VL: DILMTQSPSSLSASLGDRVTISCRASQDISNYLNWYQQKPDGTVKVLIYYTAILHSGVPSRFSGSGSGTDYSLTISNLEQEDIATYFCQQGNTLPWTFGGGTKLEIK
notes: Human-murine chimeric wild-type molecule
B2: 219-Hu3 (antibody, V domains shown)
VH: QVQLVQSGAEVKKPGSSVKVSCKASGYSFTNYWMNWVRQAPGQGLEWMGMIHPSDTETRLNQNFKDRVTITADKSTSTAYMELSSLRSEDTAVYYCARGEGLGAARSVSMDYWGQGTLVTVSS
VL: B1 VL with L3Q, L15V, S22T, V46L, N77S, E79Q, Q80P, I83F, G100Q, L104V
notes: also called VH5 + VL5
B3: 219-Hu5 (antibody, V domains shown)
VH: B2 VH with A72V
VL: B1 VL with L3Q, L15V, S22T, V46L, N77S, E79Q, Q80P, I83F, G100Q, L104V
notes: also called VH7 + VL5
B4: 219-Hu2 (antibody, V domains shown)
VH: B2 VH with R67K, V68A
VL: B1 VL with L3Q, L15V, S22T, V46L, N77S, E79Q, Q80P, I83F, G100Q, L104V
notes: also called VH4 + VL5
B5: 219-Hu1 (antibody, V domains shown)
VH: B2 VH with S16A, G44R, A72R, K74T, T76A
VL: B1 VL with L3Q, L15V, S22T, V46L, N77S, E79Q, Q80P, I83F, G100Q, L104V
notes: also called VH3 + VL5
B6: 219-Hu4 (antibody, V domains shown)
VH: B2 VH with R38K, M48I, R67K, V68A, I70L, A72V
VL: B1 VL with L3Q, L15V, S22T, V46L, N77S, E79Q, Q80P, I83F, G100Q, L104V
notes: also called VH6 + VL5
B7: 224-WT (antibody, V domains shown)
VH: EVQLQESGPEIVKPGASVKLSCTASGFNNKDIYMHWVKQRPEQGLEWIGRIDPATGNTKHDPKFQDKATLSSDTSSNTAYLQFSSLTSEDTAVYYCAHSPYGDFGAMDYWGQGTTVTVSS
VL: DIQMTQSPAIMSASLGERVTMTCTASSSVSSNYLHWYQQKPGSSPKLWIYSTSNLPSGVPARFSGSGSGTSYSLTISSMEAEDAATYYCHQYHRSPWTFGGGTKLEIK
notes: Human-murine chimeric wild-type molecule; also called human-murine chimeric antibody WT of #224
B8: 001-WT (antibody, V domains shown)
VH: EVQLQESGGGLVQPGGSLNLSCAASGFAFSTYDLSWVRQTPEKRLEWVAYINNGGISTYYSDTVKGRFTISRDNAKNTLYLQMSSLKSEDTAMYYCVRGPFYGSANYFDYWGQGTTVTVSS
VL: EIVMTQSPASLSLSVGETVTITCRTSESIYSNLPWYQQKQGKSPQLLVYDATKLAEGVPSRFSGSESGTQYSLKINSLQSEDFGTYYCQHFWVTPWTFGGGTKLEIK
notes: Human-murine chimeric wild-type molecule; also called human-murine chimeric antibody WT of #001
B9: 001-Hu5 (antibody, V domains shown)
VH: B8 VH with Q5V, N19R, T40A, E42G, R44G, S84N, K87R, S88A, M93V, T116L
VL: DIQMTQSPSSLSASVGDRVTITCRTSESIYSNLPWYQQKPGKSPKLLVYDATKLAEGVPSRFSGSGSGTDYTLTISSLQPEDFATYYCQHFWVTPWTFGQGTKVEIK
notes: Humanized form of #001; also called VH1 + VL4
B10: 001-Hu2 (antibody, V domains shown)
VH: EVQLVESGGGLVQPGGSLRLSCAASGFAFSTYDLSWVRQAPGKGLEWVAYINNGGISTYYSDTVKGRFTISRDNAKNSLYLQMNSLRAEDTAVYYCVRGPFYGSANYFDYWGQGTLVTVSS
VL: B9 VL with V48I, Y71F
notes: Humanized form of #001; also called VH2 + VL2
B11: 001-Hu1 (antibody, V domains shown)
VH: B10 VH with S78T
VL: B9 VL with S43A, V48L
notes: Humanized form of #001; also called VH1 + VL1
B12: 001-Hu3 (antibody, V domains shown)
VH: B10 VH with S78T
VL: B9 VL with S43A, V48I
notes: Humanized form of #001; also called VH1 + VL3
B13: 001-Hu4 (antibody, V domains shown)
VH: B10 VH
VL: B9 VL
notes: Humanized form of #001; also called VH2 + VL4

What was measured:
[1] = molecular target: T1, human TNFR2 on the surface of CHO-TNFR2 …; experiment: flow cytometry on CHO-TNFR2 cells; AUC, reference itself
Protocol: The transfected full-length plasmid of human TNFR2 was purchased from Sino Biological (Cat #HG10417-UT, NCBI Ref Seq: NM_001066.2). The experiment was conducted at a cell density within 80%. The cell medium was discarded; the cells were rinsed with PBS, and digested with 1 ml trypsin for 2 minutes; the digestion was stopped with a Ham's F12 complete medium containing 10% FBS, and then a cell suspension was made. The cell suspension was counted, and then an appropriate amount of cell suspension was centrifuged at 350×g; the supernatant was discarded; a corresponding volume of blocking solution (10% FBS+PBS) at a density of 1×10⁷ cells/ml was added to resuspend the cells, and the mixture was incubated at 4° C. for 30 minutes. After the incubation, the mixture was centrifuged at 350×g to remove the supernatant, and the cells were resuspended in a staining buffer (2% FBS+PBS) to a density of 2×10⁶ cells/ml, and spread onto a 96-well plate, with 50 μl of cell suspension added to each well for later use. The antibody was diluted with PBS for 10-fold gradient dilution from the highest concentration of 20 μg/m (twice the concentration); the diluted antibody was added to the well containing 50 μl of cell suspension, and placed on a microplate shaker for shaking at 500 rpm for 1 minute, so that the antibody was fully mixed with the cells; the mixture was incubated at 4° C. for 1 h. After the incubation, the cells were washed twice with the staining buffer, with 100 μl per well, and centrifuged at 350-g for 5 minutes, and the supernatant was discarded. […] After the staining, similarly, the cells were washed twice with the staining buffer; finally, the cells were resuspended in 200 μl of staining buffer; signals were detected by a flow cytometer (Thermo Attune NxT). […] The binding curve of an antibody was drawn with antibody concentration as the abscissa and corresponding mean fluorescence intensity (MFI) fold as the ordinate, and fitted with four parameters (GraphPad Prism9) to calculate the EC50 value.

[2] = molecular target: T2, Human TNFR2-His (Sino 10417-H08H); experiment: ELISA, human TNFR2-His coated; EC50 against 219-WT
Protocol: (§1) The test humanized antibody against TNFR2 (as described in Example 1, the antibody was comprised of variable regions linked to IgG-Fc; the WT chimeric antibody also adopted the IgG-Fc structure) was subjected to 3.33-fold gradient dilution, loaded with 100 μl/well, and incubated with shaking at room temperature for 1.5 hours. The plate was washed, and then a working solution of murine anti-human IgG Fc-HRP (diluted at 1:10000) was added, loaded with 100 μl/well, and incubated with shaking at room temperature for 1.0 hour. The plate was washed again, and then the substrate TMB of HRP was added to develop colour. A stop solution was added to stop the reaction, and then a microplate reader (MD 13) was used to read the absorbance value. The binding curve of an antibody was drawn with antibody concentration as the abscissa and corresponding OD value as the ordinate, and fitted with four parameters (GraphPad Prism9) to calculate the EC50 value. The smaller the EC50 value, the stronger the binding ability of an antibody to human/cynomolgus monkey TNFR2. The binding effect of a humanized antibody was normalized to its corresponding human-murine chimeric antibody WT (see SEQ ID NOs: 38-43 for the sequence). The higher the percentage value, the better the binding effect of the humanized antibody. The results of binding of an anti-TNFR2 antibody to a human TNFR2 protein are shown in FIG. 1 and Table 4, and the results of binding of an anti-TNFR2 antibody to cynomolgus monkey TNFR2 are shown in FIG. 2 and Table 4.

[3] = molecular target: T1, human TNFR2 on the surface of CHO-TNFR2 …; experiment: flow cytometry on CHO-TNFR2 cells; AUC against 219-WT
Protocol: (§2) The transfected full-length plasmid of human TNFR2 was purchased from Sino Biological (Cat #HG10417-UT, NCBI Ref Seq: NM_001066.2). The experiment was conducted at a cell density within 80%. The cell medium was discarded; the cells were rinsed with PBS, and digested with 1 ml trypsin for 2 minutes; the digestion was stopped with a Ham's F12 complete medium containing 10% FBS, and then a cell suspension was made. The cell suspension was counted, and then an appropriate amount of cell suspension was centrifuged at 350×g; the supernatant was discarded; a corresponding volume of blocking solution (10% FBS+PBS) at a density of 1×10⁷ cells/ml was added to resuspend the cells, and the mixture was incubated at 4° C. for 30 minutes. After the incubation, the mixture was centrifuged at 350×g to remove the supernatant, and the cells were resuspended in a staining buffer (2% FBS+PBS) to a density of 2×10⁶ cells/ml, and spread onto a 96-well plate, with 50 μl of cell suspension added to each well for later use. The antibody was diluted with PBS for 10-fold gradient dilution from the highest concentration of 20 μg/m (twice the concentration); the diluted antibody was added to the well containing 50 μl of cell suspension, and placed on a microplate shaker for shaking at 500 rpm for 1 minute, so that the antibody was fully mixed with the cells; the mixture was incubated at 4° C. for 1 h. After the incubation, the cells were washed twice with the staining buffer, with 100 μl per well, and centrifuged at 350-g for 5 minutes, and the supernatant was discarded. The PE goat anti-Human IgG Fc antibody (ebioscience, Cat #12-4998-82) was diluted 250-fold with the staining buffer, with a volume of 100 μl per well added to the washed cell wells; the mixture was mixed evenly, and stained at 4° C. for 30 minutes. After the staining, similarly, the cells were washed twice with the staining buffer; finally, the cells were resuspended in 200 μl of staining buffer; signals were detected by a flow cytometer (Thermo Attune NxT). The stronger the signal, the stronger the binding ability of an antibody to TNFR2. The binding curve of an antibody was drawn with antibody concentration as the abscissa and corresponding mean fluorescence intensity (MFI) fold as the ordinate, and fitted with four parameters (GraphPad Prism9) to calculate the EC50 value.

[4] = molecular target: T1, human TNFR2 on the surface of CHO-TNFR2 …; experiment: flow cytometry on CHO-TNFR2 cells; EC50 against 219-WT
Protocol: as §2

[5] = molecular target: T3, Cynomolgus TNFR2-His (Sino 90102-C08H); experiment: ELISA, cynomolgus TNFR2-His coated; EC50 against 219-WT
Protocol: as §1

[6] = molecular target: T3, Cynomolgus TNFR2-His (Sino 90102-C08H); experiment: ELISA, cynomolgus TNFR2-His coated; EC50 against 001-WT
Protocol: as §1

Binder | % Relative activity (Test antibody/WT antibody) [1] | % Relative activity (WT antibody/test antibody) [2] | % Relative activity (Test antibody/WT antibody) [3] | % Relative activity (WT antibody/test antibody) [4] | % Relative activity (WT antibody/test antibody) [5] | % Relative activity (WT antibody/test antibody) [6]
B1 | 100% |  |  |  |  | 
B2 |  | 84.4% | 96.4% | 145% | 90.4% | 
B3 |  | 96.5% | 93.3% | 147% | 93.4% | 
B4 |  | 95.9% | 103% | 97.1% | 102% | 
B5 |  | 83.1% | 110% | 100% | 77.5% | 
B6 |  | 99.7% | 95.6% | 142% | 93.1% | 
B7 | 100% |  |  |  |  | 
B8 | 100% |  |  |  |  | 
B9 |  |  |  |  |  | 105%
B10 |  |  |  |  |  | 107%
B11 |  |  |  |  |  | 108%
B12 |  |  |  |  |  | 105%
B13 |  |  |  |  |  | 106%
